Laboratory results: article PMC12048488

Target: HTT-Q20 (endogenous knock-in huntingtin: mouse Htt with humanized HTT exon 1, normal polyQ) (human | mouse)
Assay: affinity purification with mass spectrometry; evaluation of antibodies: IP-MS from whole brain and striatum lysates of 8-week Q20 and Q140 mice with EPR5526, 2B7-4C9, 4E10-3E10 or 138-139 antibodies against mIgG controls

- stoichiometry N (HTT:HAP40 ratio): 1
B1: HAP40 (F8a1), Huntingtin-associated protein 40 (natural protein)
chain: MAAGSASSLGGGAWPGSEAGDFLARYRQVSNKLKKRFLRKPNVAEAGEQFAQLARELRAQECLPYAAWCQLAVARCQQALFHGPGEALALTEAARLFLRQECDARQRLGCPAAYGEPLQAAASALGAAVRLHLELGQPAAAAALCLELAAALRAVGQPAAAAGHFQRAAQLHLPLMPLAALQALGDAASCQLLARDYTGALALFTRMQRLAREHGGHPVQQLELLPQPPSGPQPPLSGPQPRPVLGSTLPLPQPPDHAPGSVAPSPGTLGAFADVLVRCEVSRVLLLLLLQPPPAKLLPEHAQTLEKYSWEAFDGHGQDTSGQLPEELFLLLQSLVMAAQEKDTEGIKKLQVEMWPLLTAEQNHLLHLVLQETISPSGQGV
